# T1: Porcine liver acylpeptide hydrolase (porcine, UniProt P19205 1-732)
# T1 sequence (looked up): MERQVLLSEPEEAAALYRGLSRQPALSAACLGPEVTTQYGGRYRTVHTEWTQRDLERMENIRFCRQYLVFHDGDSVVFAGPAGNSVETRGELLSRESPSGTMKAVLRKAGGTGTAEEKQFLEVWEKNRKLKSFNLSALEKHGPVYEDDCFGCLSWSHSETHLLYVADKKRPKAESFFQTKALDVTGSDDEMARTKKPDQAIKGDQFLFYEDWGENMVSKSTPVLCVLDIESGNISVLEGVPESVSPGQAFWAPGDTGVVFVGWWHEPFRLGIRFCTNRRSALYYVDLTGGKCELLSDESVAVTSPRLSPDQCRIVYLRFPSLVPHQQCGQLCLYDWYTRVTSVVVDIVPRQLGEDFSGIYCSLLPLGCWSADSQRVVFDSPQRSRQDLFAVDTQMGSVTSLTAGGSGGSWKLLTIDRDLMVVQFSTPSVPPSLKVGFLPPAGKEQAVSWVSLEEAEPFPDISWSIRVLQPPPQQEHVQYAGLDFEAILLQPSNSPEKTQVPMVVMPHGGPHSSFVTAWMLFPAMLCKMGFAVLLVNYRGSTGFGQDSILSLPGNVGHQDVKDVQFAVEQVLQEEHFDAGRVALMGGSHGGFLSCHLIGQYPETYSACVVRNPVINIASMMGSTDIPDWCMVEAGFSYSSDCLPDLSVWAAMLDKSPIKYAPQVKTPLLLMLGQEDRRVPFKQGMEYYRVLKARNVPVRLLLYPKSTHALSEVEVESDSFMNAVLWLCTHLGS
# B1: SsCEI 4 (peptide)
# peptide: H-TILAEIKNINAD-NH2
# notes: As SsCEI 2 with Ala at P1; also called S4; source: synthetic peptide (solid-phase Fmoc/tBu synthesis, purified by reverse-phase HPLC)
# Columns and labels:
# [1] = target: T1, Porcine liver acylpeptide hydrolase; test: cell-based or functional assay
# [2] = target: T1, Porcine liver acylpeptide hydrolase; test: enzyme inhibition kinetics (Lineweaver-Burk); porcine APEH (0.5 nM in the legend; 3-5 nM in the methods) pre-incubated with 100 or 150 µM SsCEI 4 for 30 min at 37°C, 50 mM Tris-HCl pH 7.5, substrate acetyl-Ala-pNA; competitive inhibition; conditions: both partners purified
# [3] = target: Bovine α-chymotrypsin (bovine); test: cell-based or functional assay
Binder,IC50 of inhibition of porcine APEH activity (substrate Ac-Ala-pNA) [1] [µM],Ki [2] [µM],IC50 of inhibition of bovine α-chymotrypsin activity [3] [µM]
B1,84,4,
H-TILLEIKNINAD-NH2 [SsCEI 2],142,,21.9

# Reference: PMC3189933, “Acylpeptide Hydrolase Inhibition as Targeted Strategy to Induce Proteasomal Down-Regulation” (PLoS ONE, 2011)
